Assay in all cases: radioligand displacement (antagonist radioligand), 10 µM
(In general: In a radioligand displacement assay an active substance lowers the binding of a labelled ligand.)

Test [1] deals with 5-HT1B(h) (human), P28222. The settings on record: remark: other sources report otherwise.
In test [2] the target is T1, MAO-A (Rattus norvegicus (Rat)), P21396.
T1 chain: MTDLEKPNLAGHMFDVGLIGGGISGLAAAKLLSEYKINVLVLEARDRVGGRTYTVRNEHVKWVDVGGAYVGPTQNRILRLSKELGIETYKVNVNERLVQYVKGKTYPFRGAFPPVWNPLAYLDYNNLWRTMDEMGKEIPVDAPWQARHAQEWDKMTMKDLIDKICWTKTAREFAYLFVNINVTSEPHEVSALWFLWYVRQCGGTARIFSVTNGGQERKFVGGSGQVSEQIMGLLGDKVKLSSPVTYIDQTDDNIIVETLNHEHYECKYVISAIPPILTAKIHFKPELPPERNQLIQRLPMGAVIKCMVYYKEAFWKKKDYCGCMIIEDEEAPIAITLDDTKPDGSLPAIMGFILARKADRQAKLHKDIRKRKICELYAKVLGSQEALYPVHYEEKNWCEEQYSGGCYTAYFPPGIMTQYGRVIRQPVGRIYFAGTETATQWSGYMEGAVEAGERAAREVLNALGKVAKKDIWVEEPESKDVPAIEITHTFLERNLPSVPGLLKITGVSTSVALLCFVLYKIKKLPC

Test [3] has as its target Ca2+ channel (L, dihydropyridine site).
Test [4] deals with H2 (h) (human), P25021. The following applies: remark: other sources report otherwise.
Test [5] addresses T2, M2 (h) (human), P08172.
T2 chain: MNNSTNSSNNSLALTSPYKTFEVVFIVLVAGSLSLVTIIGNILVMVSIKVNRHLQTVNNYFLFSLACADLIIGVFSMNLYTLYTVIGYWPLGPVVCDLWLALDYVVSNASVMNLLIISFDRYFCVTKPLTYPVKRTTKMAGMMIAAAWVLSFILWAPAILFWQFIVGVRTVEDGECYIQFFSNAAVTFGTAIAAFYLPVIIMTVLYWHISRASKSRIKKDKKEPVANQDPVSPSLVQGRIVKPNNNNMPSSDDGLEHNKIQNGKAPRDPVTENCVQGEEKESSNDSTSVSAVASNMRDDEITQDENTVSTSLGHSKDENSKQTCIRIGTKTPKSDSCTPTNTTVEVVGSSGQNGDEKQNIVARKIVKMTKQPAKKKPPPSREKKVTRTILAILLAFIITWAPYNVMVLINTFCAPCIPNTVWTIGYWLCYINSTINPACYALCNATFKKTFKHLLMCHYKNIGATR
The settings on record: remark: other sources report otherwise.

The target of test [6] is T3, D1 (h) (human), P21728.
T3 chain: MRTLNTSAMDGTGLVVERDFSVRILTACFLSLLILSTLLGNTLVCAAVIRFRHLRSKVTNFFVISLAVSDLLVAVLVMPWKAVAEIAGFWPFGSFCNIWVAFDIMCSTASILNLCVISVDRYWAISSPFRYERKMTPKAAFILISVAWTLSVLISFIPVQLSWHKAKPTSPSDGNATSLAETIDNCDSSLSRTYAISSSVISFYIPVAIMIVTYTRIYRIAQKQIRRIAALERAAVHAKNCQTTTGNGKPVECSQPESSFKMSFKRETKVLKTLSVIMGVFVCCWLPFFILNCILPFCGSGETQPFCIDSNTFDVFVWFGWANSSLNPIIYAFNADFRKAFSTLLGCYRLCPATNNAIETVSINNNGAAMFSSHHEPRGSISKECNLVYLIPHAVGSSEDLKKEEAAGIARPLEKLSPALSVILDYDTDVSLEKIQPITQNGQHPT
The following applies: remark: other sources report otherwise.

Test [7] addresses T4, dopamine transporter (h) (human), Q01959.
T4 chain: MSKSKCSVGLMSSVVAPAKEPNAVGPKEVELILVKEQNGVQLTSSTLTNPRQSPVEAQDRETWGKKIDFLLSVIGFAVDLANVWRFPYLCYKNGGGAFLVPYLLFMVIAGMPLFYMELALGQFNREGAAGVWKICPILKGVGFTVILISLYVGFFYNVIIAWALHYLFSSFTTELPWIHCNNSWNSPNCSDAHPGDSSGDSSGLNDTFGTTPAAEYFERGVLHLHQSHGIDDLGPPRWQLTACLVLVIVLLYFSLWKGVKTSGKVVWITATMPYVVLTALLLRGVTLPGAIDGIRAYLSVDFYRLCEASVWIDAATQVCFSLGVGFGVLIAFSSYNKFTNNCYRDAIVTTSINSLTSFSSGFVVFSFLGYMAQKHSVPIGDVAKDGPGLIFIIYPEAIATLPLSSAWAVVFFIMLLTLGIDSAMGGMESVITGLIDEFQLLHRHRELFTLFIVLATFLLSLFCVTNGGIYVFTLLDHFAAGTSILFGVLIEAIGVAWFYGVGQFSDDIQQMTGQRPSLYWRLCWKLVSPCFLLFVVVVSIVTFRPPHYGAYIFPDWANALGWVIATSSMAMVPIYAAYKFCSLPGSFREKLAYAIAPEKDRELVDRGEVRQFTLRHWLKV
The settings on record: remark: other sources report otherwise.

Test [8] concerns the target M3 (h) (human), P20309. The following applies: remark: other sources report otherwise.
For test [9], the target named is T5, alpha 1A (h) (human), P35348.
T5 chain: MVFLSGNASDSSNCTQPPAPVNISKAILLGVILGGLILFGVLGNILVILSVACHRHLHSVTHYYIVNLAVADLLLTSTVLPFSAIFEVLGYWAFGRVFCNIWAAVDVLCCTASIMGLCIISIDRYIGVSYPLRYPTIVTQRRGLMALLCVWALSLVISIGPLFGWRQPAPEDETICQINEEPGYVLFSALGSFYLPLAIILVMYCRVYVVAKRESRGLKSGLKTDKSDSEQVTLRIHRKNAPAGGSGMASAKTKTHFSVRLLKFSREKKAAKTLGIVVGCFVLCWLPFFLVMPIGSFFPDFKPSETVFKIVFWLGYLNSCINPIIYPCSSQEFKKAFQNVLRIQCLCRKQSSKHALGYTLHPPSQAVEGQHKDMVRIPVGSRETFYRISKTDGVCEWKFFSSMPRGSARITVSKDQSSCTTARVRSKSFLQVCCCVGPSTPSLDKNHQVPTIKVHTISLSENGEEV
The following applies: remark: other sources report otherwise.

Bridge positions count the residues as written; N and C are the ends.

Sequence of 5-HT1B(h) (human), P28222 (P28222 whole entry): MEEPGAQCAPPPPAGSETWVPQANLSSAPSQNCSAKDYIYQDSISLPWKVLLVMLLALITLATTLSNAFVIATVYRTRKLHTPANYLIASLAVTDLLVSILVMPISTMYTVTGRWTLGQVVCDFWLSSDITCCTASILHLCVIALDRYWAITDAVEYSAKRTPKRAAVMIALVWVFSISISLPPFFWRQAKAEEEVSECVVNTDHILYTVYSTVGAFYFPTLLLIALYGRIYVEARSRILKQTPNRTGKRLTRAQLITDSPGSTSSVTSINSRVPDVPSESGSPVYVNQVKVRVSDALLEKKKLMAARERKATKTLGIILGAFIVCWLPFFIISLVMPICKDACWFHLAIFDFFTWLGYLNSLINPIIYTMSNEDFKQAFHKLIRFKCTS
Sequence of M3 (h) (human), P20309 (P20309 whole entry): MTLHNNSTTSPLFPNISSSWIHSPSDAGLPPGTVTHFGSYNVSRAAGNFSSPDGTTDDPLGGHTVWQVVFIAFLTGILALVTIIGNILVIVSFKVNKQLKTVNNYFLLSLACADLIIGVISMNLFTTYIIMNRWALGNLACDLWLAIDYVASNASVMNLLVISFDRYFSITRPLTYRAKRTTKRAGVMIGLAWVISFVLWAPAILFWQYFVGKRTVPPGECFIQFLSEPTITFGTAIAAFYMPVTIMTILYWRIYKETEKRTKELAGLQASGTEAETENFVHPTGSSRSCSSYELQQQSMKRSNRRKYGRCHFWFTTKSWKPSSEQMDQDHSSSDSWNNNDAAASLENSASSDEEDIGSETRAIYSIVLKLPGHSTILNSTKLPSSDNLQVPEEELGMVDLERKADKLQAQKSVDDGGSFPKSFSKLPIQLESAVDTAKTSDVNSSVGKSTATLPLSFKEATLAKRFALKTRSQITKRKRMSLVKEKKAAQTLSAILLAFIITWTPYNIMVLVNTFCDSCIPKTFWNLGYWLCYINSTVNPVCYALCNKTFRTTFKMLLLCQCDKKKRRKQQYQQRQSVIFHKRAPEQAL
Sequence of H2 (h) (human), P25021 (P25021 whole entry): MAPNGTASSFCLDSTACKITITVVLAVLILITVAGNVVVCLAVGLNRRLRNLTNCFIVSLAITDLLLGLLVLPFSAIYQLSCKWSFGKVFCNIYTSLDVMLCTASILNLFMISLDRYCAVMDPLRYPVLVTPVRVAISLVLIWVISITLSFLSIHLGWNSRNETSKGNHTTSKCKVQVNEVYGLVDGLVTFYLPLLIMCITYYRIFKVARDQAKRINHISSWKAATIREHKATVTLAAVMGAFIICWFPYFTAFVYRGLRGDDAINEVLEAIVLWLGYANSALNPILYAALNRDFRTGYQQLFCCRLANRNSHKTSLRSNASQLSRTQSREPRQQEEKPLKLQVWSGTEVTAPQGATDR

B1: Hex-[Cys(tMeBn(DOTA-PP))-Pro-Pro-Thr-Gln-Phe-Cys]-Asp-NH2 (peptide)
peptide: Hex-CPPTQFCD-NH2
modifications: bridge 1-7; not fully specified (bridges); printed as Hex-[Cys(tMeBn(DOTA-PP))-Pro-Pro-Thr-Gln-Phe-Cys]-Asp-NH2
On to B1, for which the % Inhibition of Specific Binding is -11% in test [1]; -5% in test [2]; 42% in test [3]; -5% in test [4]; -4% in test [5]; 0% in [6]. Moreover, the % Inhibition of Specific Binding came out at 12% in test [7], 10% in test [8] and 2% in test [9].

B2: Hex-[Cys(tMeBn(DOTA-AET))-Pro-Pro-Thr-Gln-Phe-Cys]-OH (peptide)
peptide: Hex-CPPTQFC-OH
modifications: bridge 1-7; not fully specified (bridges); printed as Hex-[Cys(tMeBn(DOTA-AET))-Pro-Pro-Thr-Gln-Phe-Cys]-OH
As to B2, the % Inhibition of Specific Binding was 8% in test [1]; -25% in test [2]; 54% in test [3]; -16% in [4]; 7% in [5]; 7% in [6]. For the same molecule, the % Inhibition of Specific Binding is 7% in test [7], 1% in test [8] and -12% in test [9].

Values taken from patent US20230212549A1, “COMPOUNDS COMPRISING A […] LIGAND AND USE THEREOF” (priority 2021, published 2023).
